Starred links: 1 amine or outer side, 2 acyl side, 3 side chain; linkers in the order of their positions; H or OH if unused. Positions of bridges follow the written chain, without caps; N, C: chain ends. Non-standard residues stand in square brackets, D forms with d. Primed or numbered codes have the meaning given here. RdN(3) = (R)-4-(((allyloxy)carbonyl)(methyl)amino)-2-amino-2-methylbutanoic acid, stapling residue, C=CCOC(=O)N(C)CC[C@@](C)(N[*:1])C(=O)[*:2]; RdN″ = (R)-4-(((allyloxy)carbonyl)(methyl)amino)-2-amino-2-methylbutanoic acid (stapling residue), C=CCOC(=O)N(C)CC[C@@](C)(N[*:1])C(=O)[*:2]; B5(16) = 2-amino-2-(pent-4-en-1-yl)hept-6-enoic acid = 2,2-bis(4-pentenyl)glycine (stitching residue), C=CCCCC(CCCC=C)(N[*:1])C(=O)[*:2]; B5(4) = 2,2-bis(4-pentenyl)glycine = 2-amino-2-(pent-4-en-1-yl)hept-6-enoic acid (stitching residue), C=CCCCC(CCCC=C)(N[*:1])C(=O)[*:2]; B5(5) = 2,2-bis(4-pentenyl)glycine, 2-amino-2-(pent-4-en-1-yl)hept-6-enoic acid (stitching residue), C=CCCCC(CCCC=C)(N[*:1])C(=O)[*:2]; RdN = (R)-4-(((allyloxy)carbonyl)(methyl)amino)-2-amino-2-methylbutanoic acid, C=CCOC(=O)N(C)CC[C@@](C)(N[*:1])C(=O)[*:2]; B5(19) = 2-amino-2-(pent-4-en-1-yl)hept-6-enoic acid (bis(4-pentenyl)glycine), C=CCCCC(CCCC=C)(N[*:1])C(=O)[*:2]; EtGA = (S)-2-amino-3-((carboxymethyl)(ethyl)amino)propanoic acid, CCN(CC(=O)[*:3])C[C@H](N[*:1])C(=O)[*:2]; B5 = 2-amino-2-(pent-4-en-1-yl)hept-6-enoic acid, C=CCCCC(CCCC=C)(N[*:1])C(=O)[*:2]; Trp(7-F) = N[C@@H](Cc1c[nH]c2c(F)cccc12)C(=O)O; S7 = C[C@@](CCCCCC=[*:3])(N[*:1])C(=O)[*:2]; Bta = N[C@@H](Cc1csc2ccccc12)C(=O)O; αAllylPro = C=CC[C@@]1(C(=O)O)CCCN1; S8 = C=CCCCCCC[C@](C)(N)C(=O)O; Aib = CC(C)(N)C(=O)O
T1: full-length beta-Catenin (Uniprot ID P35222) (Homo sapiens (Human), UniProt P35222 2-781)
T1 construct: Also used here for the endogenous beta-catenin of the DLD1 TCF reporter cells; also called bCat; B-Catenin
T1 sequence: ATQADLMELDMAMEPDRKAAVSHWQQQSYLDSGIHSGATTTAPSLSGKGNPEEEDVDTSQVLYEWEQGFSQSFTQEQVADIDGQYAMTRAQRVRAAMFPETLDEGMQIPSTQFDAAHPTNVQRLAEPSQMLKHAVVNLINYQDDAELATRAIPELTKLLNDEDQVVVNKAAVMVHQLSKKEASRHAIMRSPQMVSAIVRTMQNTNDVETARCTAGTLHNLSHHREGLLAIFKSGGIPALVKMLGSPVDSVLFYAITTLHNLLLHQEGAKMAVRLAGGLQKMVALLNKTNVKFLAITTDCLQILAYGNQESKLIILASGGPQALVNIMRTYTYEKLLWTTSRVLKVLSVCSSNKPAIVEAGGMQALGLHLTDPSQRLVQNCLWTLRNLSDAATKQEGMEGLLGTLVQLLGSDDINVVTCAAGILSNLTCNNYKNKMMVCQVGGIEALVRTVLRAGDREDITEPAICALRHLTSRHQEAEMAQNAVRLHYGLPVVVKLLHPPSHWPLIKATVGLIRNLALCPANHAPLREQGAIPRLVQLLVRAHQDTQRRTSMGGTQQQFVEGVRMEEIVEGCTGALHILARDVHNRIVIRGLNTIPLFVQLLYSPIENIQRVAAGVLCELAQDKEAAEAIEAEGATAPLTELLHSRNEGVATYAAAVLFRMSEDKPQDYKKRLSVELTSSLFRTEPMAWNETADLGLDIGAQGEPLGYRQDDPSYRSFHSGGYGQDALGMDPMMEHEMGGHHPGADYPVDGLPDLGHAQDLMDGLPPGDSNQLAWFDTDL

T2: full-length beta-Catenin (Uniprot ID P35222) (Homo sapiens (Human), UniProt P35222 1-781)
T2 construct: The assay protocol says 'full-length beta-Catenin (Uniprot ID P35222)'; also called bCat; B-Catenin
T2 sequence: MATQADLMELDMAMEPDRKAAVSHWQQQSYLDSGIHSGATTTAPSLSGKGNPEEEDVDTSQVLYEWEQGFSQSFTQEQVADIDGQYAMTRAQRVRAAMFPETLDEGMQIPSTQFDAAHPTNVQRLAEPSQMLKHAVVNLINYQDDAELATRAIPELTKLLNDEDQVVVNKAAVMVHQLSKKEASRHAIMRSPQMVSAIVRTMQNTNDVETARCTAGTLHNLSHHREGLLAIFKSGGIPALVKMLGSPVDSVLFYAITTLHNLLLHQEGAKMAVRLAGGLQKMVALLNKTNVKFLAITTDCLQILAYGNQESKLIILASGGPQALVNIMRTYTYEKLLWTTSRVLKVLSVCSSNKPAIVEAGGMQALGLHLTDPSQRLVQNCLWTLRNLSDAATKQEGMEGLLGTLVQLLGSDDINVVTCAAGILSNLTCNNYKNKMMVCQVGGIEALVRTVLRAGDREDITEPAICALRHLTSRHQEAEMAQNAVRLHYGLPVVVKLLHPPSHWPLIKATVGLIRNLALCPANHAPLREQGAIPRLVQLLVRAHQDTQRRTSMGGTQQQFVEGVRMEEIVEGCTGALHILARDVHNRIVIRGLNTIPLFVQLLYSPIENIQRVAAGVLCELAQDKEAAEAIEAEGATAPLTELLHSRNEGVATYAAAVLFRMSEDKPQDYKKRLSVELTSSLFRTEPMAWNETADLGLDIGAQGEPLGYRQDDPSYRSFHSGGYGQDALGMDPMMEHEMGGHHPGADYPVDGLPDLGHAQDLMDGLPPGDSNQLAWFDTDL


Each binder was assayed against T1, full-length beta-Catenin (Uniprot ID …) (assay: fluorescence polarization competition; full-length beta-catenin, competitor 5FAM-TCF4(10-53) probe).
Procedure, shortened: (§1)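 Data fitted to 1:1 binding model with hill slope from duplicate reads taken after 60 minutes at 20° C. in the dark.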

Binder | EC50 [nM]
Ac-[αAllylPro]DL[B5(4)]DEAAFN[S8]F[Bta][dN]-NH2 (staple 1-4, 4-11; also: later-eluting HPLC peak (staple isomer), Stapled peptide composition) [I-758] | 47
XDLXDEAAFNXFXT (not fully specified; as printed: Ac-PL3-Asp-Leu-B5-Asp-Glu-Ala-Ala-Phe-Asn-S8-Phe-BztA-Thr-NH2; N-terminal Ac, C-terminal NH2; stapled by olefin metathesis PL3(1)-B5(4) and B5(4)-S8(11), Stapled peptide composition) [I-748] | 54
Ac-[αAllylPro]DL[B5(4)]DEAAFN[S8]F[Bta][dT]-NH2 (staple 1-4, 4-11; also: earlier-eluting HPLC peak (staple isomer), Stapled peptide composition) [I-754] | 115

What follows are binders tested against T2, full-length beta-Catenin (Uniprot ID …) in the same assay as above.
Procedure, shortened: as §1

Binder | IC50 [nM]
Ac-[αAllylPro]DA[B5(19)]DEAAFQ[S8]FWH-NH2 (staple 1-4, 4-11, also called Ac-PL3-Asp-Ala-B5-Asp-Glu-Ala-Ala-Phe-Gln-S8-Phe-Trp-His-NH2) [I-178] | 1630
ADIXDEAAFAXFWA (not fully specified; N-terminal acetyl (Ac); RdN at 4 and S7 at 11 (staple RdN-S7 by olefin metathesis); C-terminal amide (NH2), also called Ac-Ala-Asp-Ile-RdN-Asp-Glu-Ala-Ala-Phe-Ala-S7-Phe-Trp-Ala-NH2) [I-155] | 5000
ADIXDEAAFAXFWA (not fully specified; N-terminal acetyl (Ac); RdN at 4 and S7 at 11 (staple RdN-S7 by olefin metathesis); C-terminal amide (NH2), also called Ac-Ala-Asp-Ile-RdN-Asp-Glu-Ala-Ala-Phe-Ala-S7-Phe-Trp-Ala-NH2) [I-154] | 5000
Ac-ADI[RdN″]DEAAFA[S7]FWH-NH2 (staple 4-11, also called Ac-Ala-Asp-Ile-RdN-Asp-Glu-Ala-Ala-Phe-Ala-S7-Phe-Trp-His-NH2) [I-152] | 5000
Ac-ADI[RdN(3)]DEAAFQ[S7]FWA-NH2 (staple 4-11, also called Ac-Ala-Asp-Ile-RdN-Asp-Glu-Ala-Ala-Phe-Gln-S7-Phe-Trp-Ala-NH2) [I-153] | 2140
Ac-[αAllylPro]DI[B5(5)]DEAAFV[S8]FWH-NH2 (staple 1-4, 4-11, also called Ac-PL3-Asp-Ile-B5-Asp-Glu-Ala-Ala-Phe-Val-S8-Phe-Trp-His-NH2) [I-176] | 1990
Ac-[αAllylPro]DA[B5(4)]D[EtGA]AAFV[S8]FWQ-NH2 (staple 1-4, 4-11; not fully specified, also called Ac-PL3-Asp-Ala-B5-Asp-EtGA-Ala-Ala-Phe-Val-S8-Phe-Trp-Gln-NH2) [I-172] | 5000
Ac-[Aib]DI[RdN]DEAAFQ[S7]FW-NH2 (staple 4-11, also called Ac-Aib-Asp-Ile-RdN-Asp-Glu-Ala-Ala-Phe-Gln-S7-Phe-Trp-NH2) [I-147] | 1640
XDIXDEAAFQXFWQ (not fully specified; N-terminal acetyl (Ac); PL3 at 1, B5 at 4, S8 at 11 (staples PL3-B5 and B5-S8 by olefin metathesis); C-terminal amide (NH2), also called Ac-PL3-Asp-Ile-B5-Asp-Glu-Ala-Ala-Phe-Gln-S8-Phe-Trp-Gln-NH2) [I-180] | 56
Ac-[αAllylPro]DA[B5(4)]DEAAFV[S8]F[Bta]Q-NH2 (staple 1-4, 4-11, also called Ac-PL3-Asp-Ala-B5-Asp-Glu-Ala-Ala-Phe-Val-S8-Phe-BztA-Gln-NH2) [I-144] | 146
Ac-[αAllylPro]DA[B5]D[EtGA]AAFV[S8]FWQ-NH2 (staple 1-4, 4-11; not fully specified, also called Ac-PL3-Asp-Ala-B5-Asp-EtGA-Ala-Ala-Phe-Val-S8-Phe-Trp-Gln-NH2) [I-173] | 3120
Ac-ADI[RdN″]DEAAFQ[S7]FW-NH2 (staple 4-11, also called Ac-Ala-Asp-Ile-RdN-Asp-Glu-Ala-Ala-Phe-Gln-S7-Phe-Trp-NH2) [I-148] | 2770
Ac-[αAllylPro]DA[B5(16)]DEAAFV[S8]F[Trp(7-F)]Q-NH2 (staple 1-4, 4-11, also called Ac-PL3-Asp-Ala-B5-Asp-Glu-Ala-Ala-Phe-Val-S8-Phe-7FW-Gln-NH2) [I-166] | 2160
Ac-[αAllylPro]DI[B5(5)]DDAAFQ[S8]FWH-NH2 (staple 1-4, 4-11, also called Ac-PL3-Asp-Ile-B5-Asp-Asp-Ala-Ala-Phe-Gln-S8-Phe-Trp-His-NH2) [I-174] | 1760

— patent publication US20240116985A1 (published 2024)
